This note sets out measurements from US20220054646A1 (Bicycle, published 2022).

*1 amine or outer side, *2 acyl side, *3 side chain or, on linkers, in order; H or OH if unused. Bridges are numbered along the chain shown (N, C = ends). Where no end group is shown, it is not given here. TBMB = c1c(C[*:1])cc(C[*:3])cc1C[*:2]

In test [1] the target is T1, Prostate-specific membrane antigen (PSMA) (human, UniProt Q04609 44-750, limits assumed).
T1 construct: the construct used in the fluorescence polarization and enzyme assays is not described (methods cited from Shen et al 2013 and WO 2009/070302); also called Glutamate carboxypeptidase II; GCPII
In words: fluorescence polarization assay, FP(h), PSMA. As to the method:
PSMA binding was measured using the fluorescence polarization assay methodology described in Shen et al (2013) PLOS ONE 8(7), e68339 and PSMA enzyme inhibition was measured using the methodology described in WO 2009/070302.
For orientation: In fluorescence polarisation assays a small probe gives low polarisation when free and higher when bound to something large.

The target in test [2] is T1, Prostate-specific membrane antigen …. In words: cell-based or functional assay.

T1 sequence (Q04609 44-750 limits assumed): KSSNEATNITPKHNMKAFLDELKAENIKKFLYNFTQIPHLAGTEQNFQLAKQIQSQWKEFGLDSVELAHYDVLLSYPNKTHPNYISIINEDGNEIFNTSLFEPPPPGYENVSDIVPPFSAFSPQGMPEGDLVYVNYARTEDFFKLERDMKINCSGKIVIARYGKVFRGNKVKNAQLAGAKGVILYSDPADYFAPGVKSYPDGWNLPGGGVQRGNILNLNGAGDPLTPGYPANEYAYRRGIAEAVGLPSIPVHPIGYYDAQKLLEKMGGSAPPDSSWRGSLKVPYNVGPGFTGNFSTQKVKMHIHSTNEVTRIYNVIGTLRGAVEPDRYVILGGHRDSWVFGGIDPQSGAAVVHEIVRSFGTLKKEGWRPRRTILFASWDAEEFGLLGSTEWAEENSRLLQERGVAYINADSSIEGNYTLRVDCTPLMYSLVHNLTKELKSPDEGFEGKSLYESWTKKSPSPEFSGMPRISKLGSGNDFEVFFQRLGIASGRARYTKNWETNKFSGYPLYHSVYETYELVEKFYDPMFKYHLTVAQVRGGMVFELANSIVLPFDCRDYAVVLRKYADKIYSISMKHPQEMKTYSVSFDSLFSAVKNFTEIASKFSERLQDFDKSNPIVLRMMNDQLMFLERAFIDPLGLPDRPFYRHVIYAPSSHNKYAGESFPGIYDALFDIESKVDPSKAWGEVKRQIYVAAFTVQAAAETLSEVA

The Ki is the dissociation constant of the complex between target and ligand, obtained from inhibition or displacement. Read a low Ki as tighter binding. On to CIECYIMEDGTCA (linker 1-4-12 via TBMB (inferred), Bicyclic peptide on TBMB scaffold) [21-31-01-N001], for which the affinity in test [1], expressed as Ki, was 70 nM. In other words, the double-digit nanomolar range.

As for ACMVCHMMEDGTCA (linker 2-5-13 via TBMB (inferred), Bicyclic peptide on TBMB scaffold) [21-31-N002], in test [2], the “Enzyme inhibition IC50” value turned out to be 695 nM. Besides, in test [1], the Ki is 40 nM.

FCSECYMMEDGTCA (linker 2-5-13 via TBMB (inferred), Bicyclic peptide on TBMB scaffold) [21-31-11-T01-N001] gave a Ki in test [1] of 6 nM.

B1: 21-31-04-T01-N007 (peptide)
peptide: EVCWDCFMMEDGTCAXXXXXXK
modifications: not fully specified; N-terminal acetyl (Ac); D-residue at the N-terminus (printed (D-E) / (D-Gln)); Sar6 = six sarcosine residues; C-terminal D-Lys; Ci, Cii and Ciii cyclised with TBMB (tri-substituted 1,3,5-trismethylbenzene scaffold)
notes: Bicyclic peptide on TBMB scaffold
As to B1, in test [1], the affinity corresponds to a Ki of 30 nM.
